This experiment addresses T1, recombinant human Tie1-Fc (Homo sapiens, UniProt P35590).
T1 construct: selected against the Tie1 extracellular domain fused to human Fc or to a histidine purification tag
T1 sequence (P35590 22-759 limits assumed): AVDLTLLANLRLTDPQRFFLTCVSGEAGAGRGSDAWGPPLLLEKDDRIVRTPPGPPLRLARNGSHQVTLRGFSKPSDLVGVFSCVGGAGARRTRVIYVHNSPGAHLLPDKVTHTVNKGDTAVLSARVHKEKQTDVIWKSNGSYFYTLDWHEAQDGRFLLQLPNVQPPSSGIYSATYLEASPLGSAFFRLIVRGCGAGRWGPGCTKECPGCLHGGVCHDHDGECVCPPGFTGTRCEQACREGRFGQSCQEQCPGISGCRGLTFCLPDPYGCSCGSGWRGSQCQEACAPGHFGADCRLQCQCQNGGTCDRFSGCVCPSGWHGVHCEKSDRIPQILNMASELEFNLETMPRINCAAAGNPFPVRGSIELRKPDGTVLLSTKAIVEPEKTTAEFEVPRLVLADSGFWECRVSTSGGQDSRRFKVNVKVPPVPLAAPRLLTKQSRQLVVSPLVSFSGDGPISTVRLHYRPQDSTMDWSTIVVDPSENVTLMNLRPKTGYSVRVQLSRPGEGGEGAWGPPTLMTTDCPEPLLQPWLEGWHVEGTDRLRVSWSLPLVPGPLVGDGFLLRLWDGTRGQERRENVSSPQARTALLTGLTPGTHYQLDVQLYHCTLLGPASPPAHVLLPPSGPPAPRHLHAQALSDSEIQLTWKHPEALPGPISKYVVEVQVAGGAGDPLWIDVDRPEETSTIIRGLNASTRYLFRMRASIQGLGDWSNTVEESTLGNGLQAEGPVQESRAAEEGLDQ
Briefly: ELISA on recombinant human Tie-1-Fc. The experiment is classed as binding. Particulars: soluble Fab 5 or 1 μg per 100 μl; 500 or 50 ng antigen per well. Here is the method: To evaluate if the conversion of any of the somatic mutations in the framework of E3 back to germline residues had any effect on binding activity the soluble Fabs were produced. The soluble expression vector containing the parental E3 Fab and the germlined E3 Fab construct were grown overnight at 30° C. in 2×TY broth containing 100 μg/ml ampicillin and 2% glucose and use 4 ml of this overnight culture to inoculate 400 ml of 2×TY broth containing 100 μg/ml ampicillin and 0.1% glucose. Cells were grow at 37° C. until an OD600 of 0.8-1.0, 1 mM IPTG was added and the culture was maintained at 30° C. for 4 hours. The cultures were spun down at 4,000 rpm for 15 min at 4° C. […] Dialyze against PBS using dialysis cassettes (SLIDE-A-LYSER™ Dialysis Cassettes, MWCO 10,000, Pierce, cat. no. 66380) and determine the protein concentration from the absorbance at 280 nm assuming that a 1 mg/ml solution has an absorbance of 0.86. The quality of the preparations can be analyzed by reducing and non-reducing SDS-PAGE.
Wells of an IMMULON™ 2 HB plate coated overnight with 500 ng or 50 ng of purified recombinant human Tie-1-Fc target antigen per 100 microliters 0.1 M sodium bicarbonate buffer, pH 8.5. […] After washing the wells seven times 100 microliters TMB-H2O2 solution was added to each well and the plate read at 630 nm in an ELISA. […]

B1: E3: human anti-Tie1 antibody from Fab phage library; HC SEQ ID NO:114, LC SEQ ID NO:116 (antibody, V domains shown)
VH: EVQLLESGGGLVQPGGSLRLSCAASGFTFSMYGMVWVRQAPGKGLEWVSVISPSGGNTGYADSVKGRFTISRDNSKNTLYLQVNSLRAEDTAVYYCARAPRGYSYGYYYWGQGTLVTVSSASTKGPSVFPLAPSSKSTSGG
VL: DIQMTQSPLSLSASVGDRVTITCRASQGIGHYLAWYQQKPGKVPKLLIYTASTLQSGVPSRFSGSGSGTDFTLTINSLQPEDVATYYCQQFNSYPHTFGQGTRLDIK
modifications: Synthetically generated peptide
As to B1, the “binding to recombinant human Tie-1-Fc in ELISA” value is listed as “bound”.

Source of the values: patent publication US7871610B2, “Antibodies to Tie1 ectodomain” (Dyax Corp., priority 2003, dated 2011).
